US20180066058A1 (published 2018)
Changes are numbered by the printed parent chain.

T1: human ICOS-mFc (Chimerigen) (human, UniProt Q9Y6W8 21-140)
T1 construct: also called human ICOS receptor; human ICOS Receptor; not shown: mouse Fc of the bought construct
T1 sequence: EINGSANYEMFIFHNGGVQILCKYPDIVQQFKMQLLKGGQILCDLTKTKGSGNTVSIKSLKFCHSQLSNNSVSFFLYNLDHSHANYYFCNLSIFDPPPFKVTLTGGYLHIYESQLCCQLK

T2: mouse ICOS-mFc (Chimerigen) (mouse, UniProt Q9WVS0 21-141, limits assumed)
T2 construct: also called mouse ICOS receptor; mouse ICOS Receptor; not shown: mouse Fc of the bought construct
T2 sequence: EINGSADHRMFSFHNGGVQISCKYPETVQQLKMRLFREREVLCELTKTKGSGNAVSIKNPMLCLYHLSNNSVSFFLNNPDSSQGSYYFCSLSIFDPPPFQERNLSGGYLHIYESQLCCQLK

B1: STIM005 human IgG1 (antibody, V domains shown)
VH: QVQLVQSGAEVKKPGASVKVSCKASGYTFNSYGIIWVRQAPGQGLEWMGWISVHNGNTNCAQKLQGRVTMTTDTSTSTAYMELRSLRTDDTAVYYCARAGYDILTDFSDAFDIWGHGTMVTVSS
VL: DIQMTQSPSSLSASVGDRVTITCRASQNINNFLNWYQQKEGKGPKLLIYAASSLQRGIPSTFSGSGSGTDFTLTISSLQPEDFATYICQQSYGIPWVGQGTKVEIKR
notes: Human IgG1 format
B2: STIM009 human IgG1 (antibody, V domains shown)
VH: QVQLVESGGGLVKPGGSLRLSCAASGFTFSDYYMSWIRQAPGKGLEWVSYISSSGSTIYYADSVKGRFTISRDNAKNSLYLQINSLRAEDTAVYYCARDFYDILTDSPYFYYGVDVWGQGTTVTVSS
VL: not shown
notes: Human IgG1 format
B3: STIM002 human IgG1 (antibody, V domains shown)
VH: QVQLVQSGGEVKKPGASVKVSCKASGYTFTSYGFSWVRQAPGQGLEWMGWISAYNGNTNYAQKLQGRVTMTTDTSTSTAYMELRSLRSDDTAVYYCARSTYFYGSGTLYGMDVWGQGTTVTVSS
VL: DIVMTQSPLSLPVTPGEPASISCRSSQSLLHSDGYNYLDWYLQKPGQSPQLLIYLGSTRASGFPDRFSGSGSGTDFTLKISRVEAEDVGVYYCMQALQTPLSFGQGTKLEIKR
notes: Human IgG1 format
B4: STIM002-B human IgG1 (antibody, V domains shown)
VH: B3 VH
VL: B3 VL with Y37C, L101C
notes: Human IgG1 format
B5: STIM006 human IgG1 (antibody, V domains shown)
VH: QVQLVESGGGLVKPGGSLRLSCAASGFTFSDYFMSWIRQAPGKGLEWISYISSSGSTIYYADSVRGRFTISRDNAKYSLYLQMNSLRSEDTAVYYCARDHYDGSGIYPLYYYYGLDVWGQGTTVTVSS
VL: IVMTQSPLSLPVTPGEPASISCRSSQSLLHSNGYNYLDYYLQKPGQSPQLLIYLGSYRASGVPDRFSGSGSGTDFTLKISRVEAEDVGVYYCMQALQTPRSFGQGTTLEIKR
notes: Human IgG1 format
B6: STIM004 human IgG1 (antibody, V domains shown)
VH: EVQLVESGGGVVRPGGSLRLSCAASGLTFDDYGMSWVRQVPGKGLEWVSGINWNGDNTDYADSVKGRFTISRDNAKNSLYLQMNSLRAEDTALYYCARDYYGSGSYYNVPFDYWGQGTLVTVSS
VL: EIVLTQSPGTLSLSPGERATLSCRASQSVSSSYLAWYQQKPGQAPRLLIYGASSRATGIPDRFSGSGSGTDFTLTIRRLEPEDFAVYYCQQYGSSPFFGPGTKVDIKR
notes: Human IgG1 format
B7: STIM001 human IgG4.PE (antibody, V domains shown)
VH: QVQVVQSGAEVKKPGASVKVSCKASGYTFSTFGITWVRQAPGQGLEWMGWISAYNGDTNYAQNLQGRVIMTTDTSTSTAYMELRSLRSDDTAVYYCARSSGHYYYYGMDVWGQGTTVTVSS
VL: DIVMTQSPLSLPVTPGEPASISCRSSQSLLHSNEYNYLDWYLQKPGQSPQLLIFLGSNRASGVPDRFSGSGSGTDFTLKITRVEAEDVGIYYCMQSLQTPLTFGGGTKVEIK
notes: Human IgG4.PE (null-effector) format
B8: STIM009 human IgG4.PE (antibody, V domains shown)
VH: B2 VH
VL: not shown
notes: as for B7
B9: STIM002-B human IgG4.PE (antibody, V domains shown)
VH: B3 VH
VL: DIVMTQSPLSLPVTPGEPASISCRSSQSLLHSDGYNCLDWYLQKPGQSPQLLIYLGSTRASGFPDRFSGSGSGTDFTLKISRVEAEDVGVYYCMQALQTPCSFGQGTKLEIK
notes: as for B7
B10: STIM003 human IgG4.PE (antibody, V domains shown)
VH: B6 VH with A23V, L27V, V40A, D56G, N57D, A61S, Y100F, N108H, T118I
VL: EIVLTQSPGTLSLSPGERATLSCRASQSVSRSYLAWYQQKRGQAPRLLIYGASSRATGIPDRFSGDGSGTDFTLSISRLEPEDFAVYYCHQYDMSPFTFGPGTKVDIK
notes: as for B7

These binders were tested against T1, human ICOS-mFc (Chimerigen) (assay: HTRF neutralisation of Alexa 647 human B7-H2 binding to human ICOS-mFc; human IgG1; mean, n = 4).
Procedure: (§1) 5 μl of ICOS receptor (human ICOS-mFc, 20 nM, 5 nM final or mouse ICOS-mFc 4 nM, 1 nM final (Chimerigen)) was added to required wells. Plate was incubated for 1 hr at room temperature (RT).
(§2) Finally, 5 μl of anti-mouse IgG donor mAb (Southern Biotech) labelled with europium cryptate (Cis Bio), 40 nM, 10 nM final was added to each well and the assay was left in the dark at RT to incubate for a further 2 hours. After incubation, assay was read on Envision plate reader (Perkin Elmer) using a standard HTRF protocol. […] Titration curves and IC50 values [M] were plotted using Graphpad (Prism). IC50 values were calculated by first transforming the data using equation X=Log(X). The transformed data was then fitted using nonlinear regression, using fitting algorithm, log (inhibitor) vs. response—variable slope (four parameters).

IC50 [nM] | Binder
2.5 | B1
30.5 | B2
1.9 | B3
3.6 | B4
2.2 | B5
233 | B6

Each binder was assayed against T2, mouse ICOS-mFc (Chimerigen) (assay: HTRF neutralisation of Alexa 647 mouse B7-H2 binding to mouse ICOS-mFc; human IgG1; mean, n = 3).
Procedure: as §1, §2

IC50 [nM] | Binder
0.3 | B1
6.9 | B3
30 | B4
22.1 | B6

What follows are binders tested against T1, human ICOS-mFc (Chimerigen) (assay: HTRF neutralisation of Alexa 647 human B7-H2 binding to human ICOS-mFc; human IgG4.PE; mean, n = 4).
Procedure: as §1, §2

IC50 [nM] | Binder
1.3 | B7
4.6 | B8
3.4 | B9
1.2 | B10

These binders were tested against T2, mouse ICOS-mFc (Chimerigen) (assay: HTRF neutralisation of Alexa 647 mouse B7-H2 binding to mouse ICOS-mFc; human IgG4.PE; mean, n = 3).
Procedure: as §1, §2

IC50 [nM] | Binder
4.7 | B7
43.9 | B9
0.2 | B10
